Assay results from patent publication US5733879A, “Peptides and proteins, process for their preparation and their use as cholesterol acceptors” (N.V. Innogenetics, S.A., priority 1992, dated 1998).
Entries after “also recorded” stand apart in the source; their conditions may differ. Where no end group is shown, it is not given here.

Tests used:
[1] = Percentage of alpha-helix structure by ATR infrared spectroscopy; assay type: physicochemical; settings: for percentage of alpha-helix structure, peptide, IR: free peptide; for percentage of alpha-helix structure, DMPC/peptide, IR: phospholipid-peptide (DMPC) complex
Description: Table 1: corresponds to the percentage of alpha-helix structure in the free peptide and in the phospholipid-peptide (DMPC) complexes as determined by infrared spectroscopy (IR) and circular dichroism (CD).
(§1) Attenuated Total Reflection (ATR) infrared spectroscopy was used for the determination of the relative orientation of the apolipoprotein alpha-helical segments and of the phospholipid acyl chains as previously described for apo AI and apo AI-phospholipid complexes and for LDL (Vanloo et at., 1991). For these measurements, a 70 μL solution of 20 μg isolated complex in a 0.005M Tris-HCl buffer pH 8.4, was spread on a ATR Germanium crystal plate. Deuteration of the sample was performed by flushing N2, saturated with D2 O, in a sealed universal Perkin-Elmer sample holder, at room temperature for 3 hours, in order to avoid overlapping of the absorption bands for random and alpha-helical structures.
(§2) Spectra were recorded on a Perkin Elmer 1720X infrared spectrophotometer, using polarized incident light with a perpendicular (90°) and parallel (0°) orientation. A dichroic spectrum was obtained by substracting the spectrum recorded with polarized light at 0° from that at 90°. A positive deviation on the dichroic spectrum indicates a dipole preferentially oriented close to a normal to the plane, while a larger absorbance at 0° is indicative of a dipole oriented close to the Ge crystal plane. The angle between a normal to the Ge crystal and the dipole is obtained from the calculation of the dichroic ratio Ratr =A(90°)/A(0°), representing the ratio of the absorbances on the spectra recorded with polarized light at 90° and 0° . For each experiment, up to 15 scans were stored and averaged.

[2] = molecular target: T1, semi-purified LCAT enzyme (Homo sapiens, UniProt P04180); experiment: LCAT activation properties of the phospholipid-peptide complexes (HPLC of cholesteryl esters); assay type: biochemical; settings: for Vmax compared with other complexes / apo AI-phospholipid complexes: Lineweaver-Burk plots; for Vmax (LCAT activation): PLPC/cholesterol/peptide discoidal complex as substrate, apparent kinetic constant, 37° C.; for kinetics of cholesterol esterification by LCAT (time course): discoidal complexes with PLPC and cholesterol, 0-24 h; for Vmax/Km A % of apo A1 (LCAT activation): relative to apo AI-phospholipid complex = 100
T1 construct: corresponds to the concentration relative to that in plasma by a factor of 5100, with the major contaminant being albumin; from tissue
T1 sequence (P04180 25-440): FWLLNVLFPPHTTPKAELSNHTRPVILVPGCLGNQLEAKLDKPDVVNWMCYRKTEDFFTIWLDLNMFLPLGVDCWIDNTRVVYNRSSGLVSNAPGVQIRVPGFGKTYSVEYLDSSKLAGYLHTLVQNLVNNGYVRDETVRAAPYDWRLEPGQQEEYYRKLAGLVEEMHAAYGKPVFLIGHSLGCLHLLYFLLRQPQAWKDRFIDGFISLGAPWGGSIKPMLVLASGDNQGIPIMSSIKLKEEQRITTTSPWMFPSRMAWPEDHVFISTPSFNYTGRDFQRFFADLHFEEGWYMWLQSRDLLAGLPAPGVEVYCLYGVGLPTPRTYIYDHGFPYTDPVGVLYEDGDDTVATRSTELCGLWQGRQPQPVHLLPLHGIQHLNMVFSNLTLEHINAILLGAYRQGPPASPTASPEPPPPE
Description: The activity of the LCAT enzyme with the various peptide-lipid complexes as substrates was determined by measuring the mount of cholesteryl esters generated during the enzymatic reaction by HPLC (Vercaemst et al., 1989).
The assay mixture consisted of variable mounts of complexes at cholesterol concentrations varying between 5 and 100 μM, 5 mg defatted bovine serum albumin (Sigma), 6 mM beta-mercaptoethanol in a reaction volume of 0.2 ml. After a preincubation of 20 min at 37° C., the enzymatic reaction was initiated by adding 3-6 μl of the semi-purified LCAT enzyme. The reaction was followed at 37° C. and was stopped by extraction of the incubation mixture with hexane-isopropanol 3:2, v/v. The solvent mixture contained either cholesteryl heptadecanoate (Sigma) or beta-sitosterol (Sigma) as internal standards for respectively cholesteryl esters and unesterified cholesterol quantification.
The unesterified cholesterol and the cholesteryl esters are identified and quantified by isocratic HPLC on a reversed-phase Zorbax ODS column, eluted with acetonitrile-isopropanol at a ratio of 90:10 v/v for unesterified cholesterol and of 50:50 v/v for cholesteryl esters. Detection was performed by measuring the UV absorbance at 205-210 nm. At a column temperature of 50° C. and with a flow-rate of 1.2 ml/min, the separation is completed within 25 min (Vercaemst et al., 1989). The sensitivity of this HPLC technique is similar to that of the conventional radioactive assay for polyunsaturated lecithin substrates (50 ng), and is about twice as low for saturated lecithins (80 ng).
The time course of cholesterol esterification by the LCAT enzyme with discoidal substrates consisting of PLPC, cholesterol, and the synthetic peptides, was followed between 0 and 24 h (Jonas, 1987). For the determination of the kinetic parameters, the initial velocities were determined in the linear portion of the curves, i.e. between 0-30% cholesteryl esters formation. The sample concentrations were in the range of 5×10^-7 to 5×10^-6 M with a constant enzyme volume of 5 μl, so that a linear production of cholesteryl esters formation was measured within 10 min at 37° C.
The initial kinetics (Vo) as a function of the apoprotein or peptide (C) concentrations were analyzed using a Lineweaver-Burk plot of 1/Vo versus 1/C. Linear regression analysis yielded the apparent kinetic parameters: Vmax, Km and Vmax/Km for each apoprotein or peptide-lipid complex. All kinetic experiments were performed at least three times and Vmax and Km values were expressed as mean ±error on the intercept and slope of the regression line.
The kinetics of the reaction of the semi-purified LCAT enzyme with discoidal complexes generated between the peptides, PLPC and cholesterol as substrate were followed between 0 and 24 h, and compared with those of the apo AI/PLPC/cholesterol complexes. The expression "semi-purified" corresponds to the concentration relative to that in plasma by a factor of 5100, with the major contaminant being albumin. The time course of the reaction, expressed as the percentage of esterified cholesterol as compared with the original substrate is shown on FIGS. 5a, 5b and 6 and in Table 2. […] After 24 h, more than 90% of the initial cholesterol present in all substrates was converted into cholesteryl esters (FIG. 5a).

[3] = Orientation of helices and acyl chains by polarized ATR infrared spectroscopy; assay type: physicochemical; settings: peptide-DMPC complexes
Description: as §1, §2
In order to determine the orientation of the alpha-helices with respect to the DMPC bilayer, ATR infrared spectra of DMPC and of the isolated peptide-DMPC complexes were recorded at two orthogonal linear polarizations of the incident light. […] This value is close to that measured for the apo AI-DMPC complex (Vanloo et al.,1991), and higher than that for pure DMPC. For the M1, M2, M3 and M4 peptide-DMPC complexes, the corresponding angles between the peptide and an axis perpendicular to the Ge plane are respectively 25°, 25°, 34° and 31°.

[4] = GdmCl denaturation followed by Trp maximal emission wavelength; assay type: physicochemical; settings: free peptide or protein

Vmax compared with other complexes / apo AI-phospholipid complexes [2] | Vmax (LCAT activation) [2] [nmol CE/h] | kinetics of cholesterol esterification by LCAT (time course) [2] | Vmax/Km A % of apo A1 (LCAT activation) [2] [%] | time at which plateau of esterification was reached ([2]; saturable kinetics) [h] | Substance | percentage of alpha-helix structure, peptide, IR [1] [%] | percentage of alpha-helix structure, DMPC/peptide, IR [1] [%] | angle between the peptide and an axis perpendicular to the Ge plane [3] [°] | midpoint of the GdmCl denaturation transition, free peptide [4]
two to three times lower | 1.53 | fastest kinetics |  |  | EWLEAFYKKVLEKLKELF [M4] | 35 | 58 | 31 | around 0.1 M
considerably lower | 0.33 | low rate of cholesterol esterification | 10.7 |  | EWLKAEYEKVEEKLKELF [M3] | 43 | 61 | 34 | around 0.1 M

Continued, substance first:

Substance | Vmax compared with other complexes / apo AI-phospholipid complexes [2] | Vmax (LCAT activation) [2] [nmol CE/h] | kinetics of cholesterol esterification by LCAT (time course) [2] | Vmax/Km A % of apo A1 (LCAT activation) [2] [%] | time at which plateau of esterification was reached ([2]; saturable kinetics) [h] | percentage of alpha-helix structure, peptide, IR [1] [%] | percentage of alpha-helix structure, DMPC/peptide, IR [1] [%] | angle between the peptide and an axis perpendicular to the Ge plane [3] [°] | midpoint of the GdmCl denaturation transition, free peptide [4]
EWLKAFYKKVLEKLKELF [M1] | two to three times lower; also recorded: considerably lower | 2.41 | fastest kinetics | 15.4 |  | 29 | 50 | 25 | around 0.3 M
EWLKAEYEKVLEKLKELF [M2] |  | 0.33 | low rate of cholesterol esterification | 3.3 |  | 36 | 50 | 25 | immediately
apo AI: native plasma apo AI purified from human plasma; major apoprotein constituent of HDL |  | 5.89 | fastest kinetics | 100.0 | 2 to 4 | 39 | 49 |  | 1.3 M
